Assay results reported in a protein production outcome set (Wang et al. 2014).

Assay: label from the status in PepcDB records

Row | Sequence | protein production
1 | MSLSDTIPVFDGHNDFLLRLLRNPANRETIWLKGDGTGHLDLPRMKEGGFAGGFFAIYVPSPQAHDAAHFEAMMDAPPFELPLPPMIRAEQAQPVALAMAGHLLWMERAARGRFKVCRTAAEVRSCHADGIVSGIMHMEGAEAIGADLDALHLFHSLGLRSLGPVWSRPTVFGHGVPFRFPGSPDTGEGLTEAGRRLVAECNRLKIMLDLSHLNEKGFDDVARLSDAPLVATHSNAHAVTPSTRNLTDRQLAMIRESRGMVGLNFATSFLREDGRRSAEMGWEPVLRHLDHLIDRLGEDHVGMGSDFDGATIPQGIADVTGLPALQAAMRAHGYDEPLMRKLCHENWYGLLERTWGEGHHHHHH | not failed
2 | MTTFSVIMATYNRGRHILPSIQSVLRQTCRDFELLVVGDCCTDDTADVVRALASPQIRWLNLPERGGSQAFPNNAGIEMSRGRYIAYLGHDDIWAPDHLQALADLFGHTQQPDFAVSGAIFHGPRASNFRWVTGIFDESDTALKHFFPPSSFGHRRDVADRIGKWRHPKEITAPVDADFLLRAARFGMNFVSTQRITVQKFAAGHRYLSYTGHTSDEQERMVRRMARPGYDGYLASELAKAKAAGGYMVVVHPDYERYENGQVSTQNAMAKGVVRPDLRNLRQREVIKQDNSPKALDWVPHQSGGDWVLWAGRNPRPKLLVPFKYAGKARIRLDIRHPLREALTKLKLSVNGQPAVASLGKVRQEGNLWNAQATFETALRRDDHTILELHLTRLQRPAARNGIGVGDMEVTPLGWRSIVAKGTRLLAKFRPAC | failed
3 | MIKEWATVVSWQNGQALVSCDVKASCSSCASRAGCGSRVLNKLGPQTTHTIVVPCDEPLVPGQKVELGIAEGSLLSSALLVYMSPLVGLFLIASLFQLLFASDVAALCGAILGGIGGFLIARGYSRKFAARAEWQPIILSVALPPGLVRFETSSEDASQ | failed
4 | GKLFEPYEHMVIDIPSEYQGNVTQLMAARKGQMLSMDNISDEWVRMEYKVPARGLISFRTMFMTETRGTGIANSYSEGLDEWAGEIKGRATGSLVADRSGQITAYALQQLADRGNFFVEPGTE | failed
5 | MSDGIPFAGEPADSHEAIMRATFRALREYGYAGLSIQRIADEADLSKSTFYHHFDGKEDLLLSFQEFILTEFNRIFQIESTGDPEQDIKTFVSLILDDFPDCVETPTKNAVLGSYVEMRAQAVQNPDFREKFTETDELFARQLVQIIEDGIEQGVFADVDPDTVSRFMITILDGVILQSATRNDNPVAEVRDTIDEYIEETLILNT | failed
6 | MIGHRPLLAALERGHCASYTFVMKRRNFFRFSALGLLALAGGGLYARRSSASAYYSGPISDHFDGVRFFNPGGTPPGNFMGLLKWRFNGERATWPETYPSPFPFAKPEARIDGRDMRVTFVGHASFLIQTAGLNILVDPVWSQRTSPLSFAGPKRVNPPGIRFEDLPPIDLVLVTHNHYDHLDMETLKRLHVAHKPLFITPLGNDAVIRTGVEAARIKVGDWGDVVETGSVKIHFEPCHHWSARGLNDRSMALWAAFVIETPGGKIYHIGDTGFHEGLNYGAARKKHGEFRLANLPFGAYEPRWFMKGQHQNPAEAVEGMRLCGAAHVCGHHWGTVQLTDEAVDAPLAALKAALTEQGVEESRFRPMRPGEVFDVPSA | failed
7 | MSIKVGDVFKYERRFTEEEVFEFANITGDKGRHHMEYDENGRLMVHGLLTASIGTKVGEELHYIARELVSEFIRPVFAGDTITCELTLTNVEQMEGYKKVSIESVYRNQNEKTVLVGTSYGVIRG | failed
8 | PVVVSEAGASVYSASEAAAREFPDMDVSLRGAVSIARRLQDPLAELVKIDPKAIGVGQYQHDVNQTALAKTLDAVVEDAVNAVGVDLNTASVPLLARVAGVSPTIAENIVHYRDEHGAFVNRTALKKVPRLGPKAFEQCAGFLRISGGKDPLDASAVHPEAYPVVRKMSEATGLSVEKLIGNSHVLSSLRPSDFA | failed
9 | MSSDAISLRAAGPGDLPGLLELYQVLNPSDPELTTQEAGAVFAAMLAQPGLTIFVATENGKPVATATLLIVPNLTRAARPYAFIENVVTLEARRGRGYGRTVVRHAIETAFGANCYKVMLLTGRHDPAVHAFYESCGFVQNKTGFQIRQD | not failed
10 | MERIRWLYGFLACILIAILLAPLQIMAQGEFRTSDQPLVYYIPVEQEVERGLEAFLQRSLDSAVEEGADHIVLEINTPGGRVDAAGNMARALRETDIPITAYVIDQALSAGAYIALNADEIVMAPGSTMGSAAVIDSAGNAADEKAQSYWLAEMRNAAEYNDRDPKYALAMADRSIEIPELDISNEELLTLTASQALEVNYAEAIASNRAELLEHLQIDNAFEQEMEVSFAEKLARFVTNPLIIPILLSIGSLGLVLELYSPGFGVPGIMGISALLLFFFGHLIAGFAGYEAMILFIAGFLLILIEVFMPGFGLFGILGIAGMIGGMLLASFSTAWMLVSLGISAVVTTVVAIITFRYFGSRGPWKKMILTESTSSEKGYITNETRQELVGLIGQSLTPLRPSGSGLFGEERLDVVSEGGYIEQGRKIKVVSTSGSRIVVRETDELEHHHHHH | failed
11 | MKLALITDTSAYLPEAIENHEDVYVLDIPIIIDGKTYIEGQNLTLDQYYDKLAASKELPKTSQPSLAELDDLLCQLEKEGYTHVLGLFIAAGISGFWQNIQFLIEEHPNLTIAFPDTKITSAPQGNLVRNALMCSREGMDFDVIVNKIQSQIEKIEGFIVVNDLNHLVKGGRLSNGSAIIGNLLSIKPVLHFNEEGKIVVYEKVRTEKKALKRLAEIVKEMTADGEYDIAIIHSRAQDKAEQLYNLLAKAGLKDDLEIVSFGGVIATHLGEGAVAFGITPKN | not failed
12 | MQTPPRLVAIGGLSGSGKTTIAEALAAHVGAPPGARIVESDRIRKAMHGVPAETRLPDNAYRPDVSDRVYNEMTWRAGLILSEGGSVVADAVFDRPADRERIEKAARDRGIPFFGFWLEADPLVLWQRVSERKGGPSDATVDILSRQLQRKAGLEHHHHHH | failed
13 | MLSNILPLSIGAIFGTTARWLLNLAVPASLSPATGNLFANWTGALLIGIFAETVSHPQWKLLLITGFFGSLTTLSGFSLETVTLLQSNRPASALANIFLHTAGSLLLTWLGLKIGTAVK | failed
14 | MLGLGVDRLQADINRLLASLFHQGVLDEQFLQLQQLQDETSPNFVYDVINIYFDESEKLLRNLRLLLMDREFSDYKKIGLHLNQLVGSSSSIGARRVRNVCVAFRSASELSNRPGCLRGLEVVEHEYHYLKNMMHELFQWLQLEQQRILAAGVRYPM | failed
15 | MRFFYFSGEIMEKILVIRNDKLGDFMQAWPAFAMLKASNPKLKLTALVPSYTASLAEICPFIDHVIIDSKKNDKTDFKRLVQEIKAQQFDGMISFFSNTHNGKLAWKSGIKYRLAPATKWVQILYNHRLTQRRSRSEKSEAEYNQDLVRTFLQKHNMPVVEPKPPYLIFEKSAVENQRVFLQENLGLSANKKWIFVHSGSGGSATNLSLAQYADLIKGLLAEFDCNVVLTAGPGESEKAYELANLVNDLRVAIYDKNKGLVDFAHSLACADLFIAGSTGPLHLSSAFNIPTIGFYPNSRSSQPRRWKPINDVDKHIAFCPPAGKESQMNLELISIDNALAEISLFIRNMWQTSNNI | failed
16 | MSDRIASEKLRSKLMSADEAAQFVNHGDKVGFSGFTGAGYPKALPTAIANRAKEAHGAGNDYAIDLFTGASTAPDCDGVLAEADAIRWRMPYASDPIMRNKINSGSMGYSDIHLSHSGQQVEEGFFGQLNVAVIEITRITEEGYIIPSSSVGNNVEWLNAAEKVILEVNSWQSEDLEGMHDIWSVPALPNRIAVPINKPGDRIGKTYIEFDTDKVVAVVETNTADRNAPFKPVDDISKKIAGNFLDFLESEVAAGRLSYDGYIMQSGVGNVPNAVMAGLLESKFENIQAYTEVIQDGMVDLIDAGKMTVASATSFSLSPEYAEKMNNEAKRYRESIILRPQQISNHPEVIRRVGLIATNGLIEADIYGNVNSTNVSGSRVMNGIGGSGDFTRNGYISSFITPSEAKGGAISAIVPFASHIDHTEHDVMVVISEYGYADLRGLAPRERVAKMIGLAHPDYRPLLEEYYARATSGDNKYMQTPHDLATAFDFHINLAKNGSMKA | not failed
